Consider ten variants from IntAct's records for PubMed 31515488.

Sequences and labels used below:
B1: Syntaxin-12 (Homo sapiens), Q86Y82 (parent)
chain: MSYGPLDMYRNPGPSGPQLRDFSSIIQTCSGNIQRISQATAQIKNLMSQLGTKQDSSKLQENLQQLQHSTNQLAKETNELLKELGSLPLPLSTSEQRQQRLQKERLMNDFSAALNNFQAVQRRVSEKEKESIARARAGSRLSAEERQREEQLVSFDSHEEWNQMQSQEDEVAITEQDLELIKERETAIRQLEADILDVNQIFKDLAMMIHDQGDLIDSIEANVESSEVHVERATEQLQRAAYYQKKSRKKMCILVLVLSVIILILGLIIWLVYKTK
B2: GRIP and coiled-coil domain-containing protein 1 (Homo sapiens), Q96CN9 (parent)
chain: MEKFGMNFGGGPSKKDLLETIETQKKQLLQYQARLKDVVRAYKSLLKEKEALEASIKVLSVSHEADVGLAGVQLPGLTFPDSVDDRCSTHSEDSTGTATSLDTAASLTSTKGEFGVEDDRPARGPPPPKSEEASWSESGVSSSSGDGPFAGGEVDKRLHQLKTQLATLTSSLATVTQEKSRMEASYLADKKKMKQDLEDASNKAEEERARLEGELKGLQEQIAETKARLITQQHDRAQEQSDHALMLRELQKLLQEERTQRQDLELRLEETREALAGRAYAAEQMEGFELQTKQLTREVEELKSELQAIRDEKNQPDPRLQELQEEAARLKSHFQAQLQQEMRKTALAEDQLRQQSQVEEQRVAALENQISEVSELLGTYEKAKQKDQLAIQKLKERILQLDLENKTLALAASSRSPLDSHGEESSLDVNVLKDKMEKLKRLLQVAARKSQVTLDVEKLCDLEIMPSSEAADGEKATALYYQQELKQLKEEFERYKMRAQVVLKSKNTKDGNLGKELEAAQEQLAELKEKYISLRLSCEELEHQHQQEADDWKQELARLQQLHRQELERCQLDFRDRTLKLEEELHKQRDRALAVLTEKDLELEQLRSVALASGLPGRRSPVGGGGPGDPADTSSSDSLTQALQLAAANEPTFFLYAEQLARKEVEITSLRKQKHRLEVEVHQLQDRLLEEGERHREEVAALQSHIEKNIRDQSREGANLEYLKNIIYRFLTLPDSLGRQQTLTAILTILHFSPEEKQVIMRLPTSASWWPSGKR
partner: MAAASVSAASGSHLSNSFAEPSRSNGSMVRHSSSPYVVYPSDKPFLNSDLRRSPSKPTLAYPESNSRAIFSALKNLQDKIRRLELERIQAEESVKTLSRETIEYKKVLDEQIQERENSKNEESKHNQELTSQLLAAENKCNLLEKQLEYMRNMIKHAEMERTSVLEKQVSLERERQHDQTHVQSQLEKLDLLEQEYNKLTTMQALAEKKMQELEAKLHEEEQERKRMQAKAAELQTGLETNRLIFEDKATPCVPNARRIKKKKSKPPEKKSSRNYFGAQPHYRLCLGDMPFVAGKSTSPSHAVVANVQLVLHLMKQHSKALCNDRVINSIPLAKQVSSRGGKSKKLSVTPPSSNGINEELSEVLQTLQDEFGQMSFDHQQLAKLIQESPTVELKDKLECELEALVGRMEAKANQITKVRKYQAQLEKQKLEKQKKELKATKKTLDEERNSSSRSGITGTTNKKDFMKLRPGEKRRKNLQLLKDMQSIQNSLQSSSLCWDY
B3: BTB/POZ domain-containing protein KCTD6 (Homo sapiens), Q8NC69 (parent)
chain: MDNGDWGYMMTDPVTLNVGGHLYTTSLTTLTRYPDSMLGAMFGGDFPTARDPQGNYFIDRDGPLFRYVLNFLRTSELTLPLDFKEFDLLRKEADFYQIEPLIQCLNDPKPLYPMDTFEEVVELSSTRKLSKYSNPVAVIITQLTITTKVHSLLEGISNYFTKWNKHMMDTRDCQVSFTFGPCDYHQEVSLRVHLMEYITKQGFTIRNTRVHHMSERANENTVEHNWTFCRLARKTDD
B4: Proteasome subunit beta type-1 (Homo sapiens), P20618 (parent)
chain: MLSSTAMYSAPGRDLGMEPHRAAGPLQLRFSPYVFNGGTILAIAGEDFAIVASDTRLSEGFSIHTRDSPKCYKLTDKTVIGCSGFHGDCLTLTKIIEARLKMYKHSNNKAMTTGAIAAMLSTILYSRRFFPYYVYNIIGGLDEEGKGAVYSFDPVGSYQRDSFKAGGSASAMLQPLLDNQVGFKNMQNVEHVPLSLDRAMRLVKDVFISAAERDVYTGDALRICIVTKEGIREETVSLRKD
partner: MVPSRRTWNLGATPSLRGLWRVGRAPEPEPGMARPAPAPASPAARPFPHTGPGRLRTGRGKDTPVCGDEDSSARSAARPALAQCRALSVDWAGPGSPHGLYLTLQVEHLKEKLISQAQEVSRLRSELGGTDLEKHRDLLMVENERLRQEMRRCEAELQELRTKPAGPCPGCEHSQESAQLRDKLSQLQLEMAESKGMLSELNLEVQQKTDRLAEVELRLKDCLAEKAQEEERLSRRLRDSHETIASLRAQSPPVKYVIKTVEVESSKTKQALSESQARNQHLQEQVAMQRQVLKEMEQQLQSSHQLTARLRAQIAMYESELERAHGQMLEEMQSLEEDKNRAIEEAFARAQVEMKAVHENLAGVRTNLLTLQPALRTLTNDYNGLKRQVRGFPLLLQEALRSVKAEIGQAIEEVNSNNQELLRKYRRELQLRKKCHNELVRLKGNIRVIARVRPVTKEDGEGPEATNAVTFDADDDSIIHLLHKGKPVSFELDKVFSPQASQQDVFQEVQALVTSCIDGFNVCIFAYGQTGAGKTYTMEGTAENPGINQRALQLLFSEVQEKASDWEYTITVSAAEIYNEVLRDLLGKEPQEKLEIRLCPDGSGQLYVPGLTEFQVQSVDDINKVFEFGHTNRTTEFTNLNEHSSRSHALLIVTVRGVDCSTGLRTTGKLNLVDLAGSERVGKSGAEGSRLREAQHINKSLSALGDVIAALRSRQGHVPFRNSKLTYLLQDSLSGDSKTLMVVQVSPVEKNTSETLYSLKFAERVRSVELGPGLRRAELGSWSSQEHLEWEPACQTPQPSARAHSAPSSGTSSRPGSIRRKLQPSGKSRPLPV
B5: Syntaxin-3 (Homo sapiens), Q13277 (parent)
chain: MKDRLEQLKAKQLTQDDDTDAVEIAIDNTAFMDEFFSEIEETRLNIDKISEHVEEAKKLYSIILSAPIPEPKTKDDLEQLTTEIKKRANNVRNKLKSMEKHIEEDEVRSSADLRIRKSQHSVLSRKFVEVMTKYNEAQVDFRERSKGRIQRQLEITGKKTTDEELEEMLESGNPAIFTSGIIDSQISKQALSEIEGRHKDIVRLESSIKELHDMFMDIAMLVENQGEMLDNIELNVMHTVDHVEKARDETKKAVKYQSQARKKLIIIIVLVVVLLGILALIIGLSVGLN
B6: Trichoplein keratin filament-binding protein (Homo sapiens), Q9BT92 (parent)
chain: MALPTLPSYWCSQQRLNQQLARQREQEARLRQQWEQNSRYFRMSDICSSKQAEWSSKTSYQRSMHAYQREKMKEEKRRSLEARREKLRQLMQEEQDLLARELEELRLSMNLQERRIREQHGKLKSAKEEQRKLIAEQLLYEHWKKNNPKLREMELDLHQKHVVNSWEMQKEEKKQQEATAEQENKRYENEYERARREALERMKAEEERRQLEDKLQAEALLQQMEELKLKEVEATKLKKEQENLLKQRWELERLEEERKQMEAFRQKAELGRFLRHQYNAQLSRRTQQIQEELEADRRILQALLEKEDESQRLHLARREQVMADVAWMKQAIEEQLQLERAREAELQMLLREEAKEMWEKREAEWARERSARDRLMSEVLTGRQQQIQEKIEQNRRAQEESLKHREQLIRNLEEVRELARREKEESEKLKSARKQELEAQVAERRLQAWEADQQEEEEEEEARRVEQLSDALLQQEAETMAEQGYRPKPYGHPKIAWN
partner: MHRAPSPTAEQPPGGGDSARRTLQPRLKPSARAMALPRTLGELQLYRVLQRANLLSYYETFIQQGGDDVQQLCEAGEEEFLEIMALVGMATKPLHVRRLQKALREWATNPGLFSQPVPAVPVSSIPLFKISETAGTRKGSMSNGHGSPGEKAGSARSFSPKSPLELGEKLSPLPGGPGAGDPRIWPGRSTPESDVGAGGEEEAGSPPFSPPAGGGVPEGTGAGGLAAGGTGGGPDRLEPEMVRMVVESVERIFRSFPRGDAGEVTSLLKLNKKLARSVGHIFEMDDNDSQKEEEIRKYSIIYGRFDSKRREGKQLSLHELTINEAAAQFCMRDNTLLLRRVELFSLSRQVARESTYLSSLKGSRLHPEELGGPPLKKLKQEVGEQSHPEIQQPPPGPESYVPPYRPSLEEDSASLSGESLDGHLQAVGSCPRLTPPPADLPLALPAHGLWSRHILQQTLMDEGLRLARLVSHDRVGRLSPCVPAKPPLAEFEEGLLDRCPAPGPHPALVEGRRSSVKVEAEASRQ
B7: Protein SSX3 (Homo sapiens), Q99909 (parent)
chain: MNGDDTFARRPTVGAQIPEKIQKAFDDIAKYFSKEEWEKMKVSEKIVYVYMKRKYEAMTKLGFKAILPSFMRNKRVTDFQGNDFDNDPNRGNQVQRPQMTFGRLQGIFPKIMPKKPAEEGNVSKEVPEASGPQNDGKQLCPPGKPTTSEKINMISGPKRGEHAWTHRLRERKQLVIYEEISDPEEDDE
partner: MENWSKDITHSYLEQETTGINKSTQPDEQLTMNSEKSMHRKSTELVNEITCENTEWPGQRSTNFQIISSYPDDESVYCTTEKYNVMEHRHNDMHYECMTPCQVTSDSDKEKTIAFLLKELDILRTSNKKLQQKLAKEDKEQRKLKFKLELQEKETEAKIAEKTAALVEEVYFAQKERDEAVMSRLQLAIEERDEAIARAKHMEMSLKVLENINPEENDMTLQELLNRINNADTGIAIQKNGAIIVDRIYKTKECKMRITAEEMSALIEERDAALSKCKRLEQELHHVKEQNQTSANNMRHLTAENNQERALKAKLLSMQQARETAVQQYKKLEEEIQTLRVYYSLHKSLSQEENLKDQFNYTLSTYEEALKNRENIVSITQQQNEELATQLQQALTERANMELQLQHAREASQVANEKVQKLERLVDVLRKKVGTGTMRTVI
B8: Eukaryotic translation initiation factor 4E-binding protein 2 (Homo sapiens), Q13542 (parent)
chain: MSSSAGSGHQPSQSRAIPTRTVAISDAAQLPHDYCTTPGGTLFSTTPGGTRIIYDRKFLLDRRNSPMAQTPPCHLPNIPGVTSPGTLIEDSKVEVNNLNNLNNHDRKHAVGDDAQFEMDI

Variants of B1 are the subject of the first experiment. The settings on record: with dtx2_human DTX2, Q86UW9.
Chain of dtx2_human DTX2, Q86UW9 (Q86UW9 whole entry): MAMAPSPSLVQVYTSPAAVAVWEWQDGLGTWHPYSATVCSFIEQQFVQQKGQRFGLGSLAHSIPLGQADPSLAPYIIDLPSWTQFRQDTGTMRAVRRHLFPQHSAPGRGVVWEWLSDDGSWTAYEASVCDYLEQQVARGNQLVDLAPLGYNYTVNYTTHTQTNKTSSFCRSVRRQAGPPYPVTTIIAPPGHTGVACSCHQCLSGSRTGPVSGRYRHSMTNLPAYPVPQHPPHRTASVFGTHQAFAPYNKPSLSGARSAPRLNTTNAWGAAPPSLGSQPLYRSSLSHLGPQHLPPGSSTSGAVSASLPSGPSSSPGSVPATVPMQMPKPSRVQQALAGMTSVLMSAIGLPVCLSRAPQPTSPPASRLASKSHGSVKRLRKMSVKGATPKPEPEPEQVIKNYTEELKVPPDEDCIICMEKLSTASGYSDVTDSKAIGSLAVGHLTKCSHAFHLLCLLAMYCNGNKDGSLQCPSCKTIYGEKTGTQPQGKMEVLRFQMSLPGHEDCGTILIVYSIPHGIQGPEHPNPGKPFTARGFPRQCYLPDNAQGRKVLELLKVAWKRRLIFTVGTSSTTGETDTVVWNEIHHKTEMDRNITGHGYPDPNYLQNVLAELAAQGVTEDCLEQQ
Turning to P88R, the “effect of a mutation on the interaction” value is reported as “with no effect”.

Another experiment covers variants of B1. Particulars: with stx4_human STX4, Q12846.
Target sequence in this assay (Q12846 whole entry): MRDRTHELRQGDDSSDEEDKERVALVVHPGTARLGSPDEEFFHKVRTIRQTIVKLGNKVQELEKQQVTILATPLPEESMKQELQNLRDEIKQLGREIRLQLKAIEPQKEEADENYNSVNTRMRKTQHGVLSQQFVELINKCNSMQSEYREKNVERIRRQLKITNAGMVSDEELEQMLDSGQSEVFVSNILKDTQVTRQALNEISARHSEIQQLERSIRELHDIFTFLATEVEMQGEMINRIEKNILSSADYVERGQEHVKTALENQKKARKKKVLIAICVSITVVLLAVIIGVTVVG
As for P88R, the “effect of a mutation on the interaction” value is reported as “with no effect”.

The next experiment covers variants of B2. Particulars: with cep57_human CEP57, Q86XR8.
Take A274T: the “effect of a mutation on the interaction” value is “with no effect”.

The variants in a further experiment derive from B3. The settings on record: with prp31_human PRPF31, Q8WWY3.
Chain of prp31_human PRPF31, Q8WWY3 (Q8WWY3 whole entry): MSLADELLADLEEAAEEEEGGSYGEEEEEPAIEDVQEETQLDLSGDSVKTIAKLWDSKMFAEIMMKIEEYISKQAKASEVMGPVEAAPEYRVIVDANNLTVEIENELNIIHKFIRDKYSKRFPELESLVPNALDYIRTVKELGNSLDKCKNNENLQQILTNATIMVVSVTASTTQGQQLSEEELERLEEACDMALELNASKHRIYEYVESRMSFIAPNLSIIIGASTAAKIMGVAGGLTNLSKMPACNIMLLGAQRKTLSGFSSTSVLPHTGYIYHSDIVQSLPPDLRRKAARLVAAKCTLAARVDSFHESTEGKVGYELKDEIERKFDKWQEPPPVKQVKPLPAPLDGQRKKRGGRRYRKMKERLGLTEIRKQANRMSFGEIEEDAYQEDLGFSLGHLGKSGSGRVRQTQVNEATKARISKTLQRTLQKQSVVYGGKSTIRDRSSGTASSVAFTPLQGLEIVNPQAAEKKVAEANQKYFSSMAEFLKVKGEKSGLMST
As for N207S, the “effect of a mutation on the interaction” value is given as “with no effect”.

Variants of B3 are the subject of a further experiment. Particulars: with echp_human EHHADH.
As for N207S, the “effect of a mutation on the interaction” value is “with no effect”.

The variants in the next experiment derive from B4. The settings on record: with kifc3_human KIFC3, Q9BVG8.
As for P11A, the “effect of a mutation on the interaction” value is on record as “with no effect”.

The next experiment covers variants of B5. Particulars: with stx4_human STX4, Q12846.
Target sequence in this assay (Q12846 whole entry): as the sequence (Q12846 whole entry) above
Regarding H198Y, the “effect of a mutation on the interaction” value is “disrupting interaction strength”.

As for G276S, the “effect of a mutation on the interaction” value is “with no effect”.

In another experiment the parent is B6. The settings on record: with nab2_human NAB2, Q15742.
Consider K127R, for which the “effect of a mutation on the interaction” value is “with no effect”.

The variants in another experiment derive from B7. The settings on record: with mipo1_human MIPOL1, Q8TD10.
As for R159S, the “effect of a mutation on the interaction” value was “with no effect”. Consider T77A, for which the “effect of a mutation on the interaction” value is listed as “with no effect”.

The next experiment covers variants of B8. Particulars: with if4e_human EIF4E.
As to G6D, the “effect of a mutation on the interaction” value is “with no effect”.
